Experiments:
[1] = molecular target: T1, human TIM-3 coupled to Fc (human, UniProt Q8TDQ0 22-200); test: SPR; culture supernatant
[2] = molecular target: T1, human TIM-3 coupled to Fc; test: SPR; crude periplasmic extract

Binder	koff [1] [s⁻¹]	koff [2] [s⁻¹]
anti-TIM-3 antibody clone 1B9 (antibody, V domains shown) VH: QVQLQQWGAGLLKPSETLSLTCAVYGGSFSGYYWSWIRQPPGKGLEWIGEINHSGSTNYNPSLKSRVTISVDTSKNQFSLKLSSVTAADTAVYYCARGYVAGSDAWGQGTLVTVSS VL: QSVLTQPPSVSAAPGQKVTISCSGSSSNIGNNYVSWYQQLPGTAPKLLIYGNNWRPSGIPDRFSGSKSGTSATLGITGLQTGDEADYYCEAWDYYVAAGYFGGGTKLTVL	4.3e-05	2.8e-05
anti-TIM-3 antibody clone 2F4 (antibody, V domains shown) VH: QVQLQQWGAGLLKPSETLSLTCAVYGGSFSGYYWSWIRQPPGKGLEWIGEINHSGSTNYNPSLKSRVTISVDTSKNQFSLKLSSVTAADTAVYYCARGYVAGSDAWGQGTLVTVSS VL: QSVLTQPPSVSAAPGQKVTISCSGSSSNIGNNYVSWYQQLPGTAPKLLIYGNNWRPSGIPDRFSGSKSGTSATLGITGLQTGDEADYYCESWDYDYASGVFGGGTKLTVL	8.7e-05	0.00014
anti-TIM-3 antibody clone 1H10 (antibody, V domains shown) VH: QVQLQQWGAGLLKPSETLSLTCAVYGGSFSGYYWSWIRQPPGKGLEWIGEINHSGSTNYNPSLKSRVTISVDTSKNQFSLKLSSVTAADTAVYYCARGYVAGFDSWGQGTLVTVSS VL: QSVLTQPPSVSAAPGQKVTISCSGSSSNIGNNYVSWYQQLPGTAPKLLIYGNNWRPSGIPDRFSGSKSGTSATLGITGLQTGDEADYYCDSWDYDYAAGVFGGGTKLTVL	2.9e-05	2.3e-05
anti-TIM-3 antibody clone 2C7 (antibody, V domains shown) VH: QVQLQQWGAGLLKPSETLSLTCAVYGGSFSGYYWSWIRQPPGKGLEWIGEINHSGSTNYNPSLKSRVTISVDTSKNQFSLKLSSVTAADTAVYYCARGYVAGYDYWGQGTLVTVSS VL: QSVLTQPPSVSAAPGQKVTISCSGSSSNIGNNYVSWYQQLPGTAPKLLIYGNNWRPSGIPDRFSGSKSGTSATLGITGLQTGDEADYYCDSWDSYLAAGVFGGGTKLTVL	0.00021	0.00019
anti-TIM-3 antibody clone 1D9 (antibody, V domains shown) VH: QVQLQQWGAGLLKPSETLSLTCAVYGGSFSGYYWSWIRQPPGKGLEWIGEINHSGSTNYNPSLKSRVTISVDTSKNQFSLKLSSVTAADTAVYYCARGYYAGDDYWGQGTLVTVSS VL: QSVLTQPPSVSAAPGQKVTISCSGSSSNIGNNYVSWYQQLPGTAPKLLIYGNNWRPSGIPDRFSGSKSGTSATLGITGLQTGDEADYYCEAWDSAYAAGSFGGGTKLTVL	0.00018	0.00018
anti-TIM-3 antibody clone 1F4 (antibody, V domains shown) VH: QVQLQQWGAGLLKPSETLSLTCAVYGGSFSGYYWSWIRQPPGKGLEWIGEINHSGSTNYNPSLKSRVTISVDTSKNQFSLKLSSVTAADTAVYYCARGYVAGYDYWGQGTLVTVSS VL: QSVLTQPPSVSAAPGQKVTISCSGSSSNIGNNYVSWYQQLPGTAPKLLIYGNNWRPSGIPDRFSGSKSGTSATLGITGLQTGDEADYYCDSWDAALSAGVFGGGTKLTVL	0.0003	0.00029
anti-TIM-3 antibody clone 2G6 (antibody, V domains shown) VH: QVQLQQWGAGLLKPSETLSLTCAVYGGSFSGYYWSWIRQPPGKGLEWIGEINHSGSTNYNPSLKSRVTISVDTSKNQFSLKLSSVTAADTAVYYCARGYVAGFDSWGQGTLVTVSS VL: QSVLTQPPSVSAAPGQKVTISCSGSSSNIGNNYVSWYQQLPGTAPKLLIYGNNWRPSGIPDRFSGSKSGTSATLGITGLQTGDEADYYCDSWDSSDSSGVFGGGTKLTVL	0.00013	0.00022
anti-TIM-3 antibody clone 1H9 (antibody, V domains shown) VH: QVQLQQWGAGLLKPSETLSLTCAVYGGSFSGYYWSWIRQPPGKGLEWIGEINHSGSTNYNPSLKSRVTISVDTSKNQFSLKLSSVTAADTAVYYCARGYVAGFDDWGQGTLVTVSS VL: QSVLTQPPSVSAAPGQKVTISCSGSSSNIGNNYVSWYQQLPGTAPKLLIYGNNWRPSGIPDRFSGSKSGTSATLGITGLQTGDEADYYCDSWDSADASGVFGGGTKLTVL	0.00016	7e-05
